Laboratory results: publication PMC11642994, “AGC family kinase of Entamoeba histolytica: Decoding the members biochemically” (PLOS Pathogens, 2024)
Entries after “also recorded” stand apart in the source; their conditions may differ. No end group written: not given here.

How the values were obtained:
[1] = biological target: EhAGCK1 WT (Entamoeba histolytica, UniProt C4M2W0); experiment: Microscale Thermophoresis (MST), EhAGCK1 WT; assay type: binding
Procedure: Microscale Thermophoresis (MST) was performed in the presence of full-length and kinase-dead EhAGCK1 and EhAGCK2 proteins, along with HsGSK3, EhRhoGEF, and EhCoactosin peptide substrates. Proteins were labelled using a His-tag labelling kit, RED-tris-NTA 2nd Generation (Nano Temper Technologies, San Francisco, CA, USA). A brief labelling reaction was performed in a buffer containing (50 mM Tris-Cl pH 8, 150 mM NaCl, 1 mM β-ME and 5% glycerol) with a protein concentration of 20 nM and a molar dye: protein ratio of approximately 3:1. The mixture was kept at room temperature for 30 min, followed by centrifugation at 15000 g for 10 min at 4°C. A series of 16 1:1 dilutions were prepared using the same buffer, resulting in peptide concentrations ranging from 500 μM to […]. Following a 10 min incubation, the samples were loaded into standard monolith NT.115 capillaries from Nano Temper Technologies. […] Data from three independently pipetted measurements were analysed using MO. […]
The kinase assay data presented here are the mean ± standard error (SE) of n≥3 of three independent experiments. The Km and Vmax were determined from a direct, nonlinear fit of [V] versus [S] plots using the Michaelis-Menten equation: V=Vmax[S]/Km+[S] using the GraphPad Prism 9.0 software package (GraphPad Software Inc., CA, USA). […]

[2] = biological target: T1, EhAGCK1 WT (Entamoeba histolytica AGC family kinase 1, EHI_188930), full-length recombinant His-tagged protein (Entamoeba histolytica, UniProt C4M2W0 1-433); experiment: MST; His-tagged kinase labelled with RED-tris-NTA 2nd Generation dye, kept constant (50 nM by the legend); unlabelled peptide in 16 1:1 dilutions, 500 uM to 153 nM as printed; 50 mM Tris-Cl pH 8, 150 mM NaCl, 1 mM beta-ME, 5% glycerol; 25 C; Monolith NT.115, 50% LED, medium MST power; details: both partners purified
T1 construct: also called His-EhAGCK1; source: E. coli C41(DE3), purified (Ni2+-NTA)
T1 sequence: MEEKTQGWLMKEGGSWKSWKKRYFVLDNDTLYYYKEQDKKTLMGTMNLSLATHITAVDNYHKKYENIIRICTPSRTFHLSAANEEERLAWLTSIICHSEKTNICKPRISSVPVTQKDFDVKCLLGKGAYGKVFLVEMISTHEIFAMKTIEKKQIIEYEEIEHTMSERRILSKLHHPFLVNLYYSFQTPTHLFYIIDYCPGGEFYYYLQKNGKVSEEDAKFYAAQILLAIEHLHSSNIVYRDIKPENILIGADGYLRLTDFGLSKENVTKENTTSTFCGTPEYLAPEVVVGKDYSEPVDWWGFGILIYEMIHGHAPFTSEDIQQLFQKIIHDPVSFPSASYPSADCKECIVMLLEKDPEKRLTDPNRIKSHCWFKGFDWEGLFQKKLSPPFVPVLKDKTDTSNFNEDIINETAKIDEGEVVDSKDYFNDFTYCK

[3] = tested on: HsGSK3 peptide; experiment: ADP-Glo kinase activity of kinase variants with human GSK3 peptide in MgCl2 and MnCl2 buffers; assay type: biochemical; details: for kinase activity with HsGSK3 peptide in presence of Mn2+: Mn2+ present
Procedure: The phosphorylation activity of kinases was measured using the ADP-Glo kinase assay kit according to the manufacturer’s protocol with few modifications (Promega, Madison, WI, Catalogue number V6930). Assays were performed in a Corning 384-well low-volume white round bottom polystyrene NBS microplate with a total volume of 32 μl in the ratio of 1:1:2, corresponding to the kinase reaction, ADP-Glo reagent, and detection reagent, respectively. The kinase reaction was performed in an 8 μl volume containing 4 μl of purified protein kinases, 2 μl of peptide substrate, and 2 μl of ATP (Promega, Madison, WI). The working concentration of all the kinase reaction components was prepared in the standard kinase assay buffer (40 mM Tris-Cl pH 7.5, 20 mM MgCl2, 2 mM DTT). Along with other controls, only buffer-negative controls without protein kinase, substrate, and ATP were included in the kinase assay. Kinase assay reactions in each well were started immediately by adding ATP. The reactions were allowed to continue for 1 h at 30°C in the incubator chamber without shaking. The kinase assay was quenched by adding 8 μl of ADP-Glo reagent in each well before adding ADP-Glo reagent. The reaction plate was incubated for 5 min at room temperature. Termination reactions were allowed to proceed for 40 min at room temperature. ADP-Glo reagent, in addition to quenching the reaction, scavenges the unconsumed ATP from the reaction. In the final step of the ADP-Glo kinase assay, 16 μl of kinase detection reagent was added to each well and incubated for 40 min to simultaneously convert ADP to ATP and allow the newly synthesised ATP to be measured using a luciferase/luciferin reaction. The luminescent signal generated was measured using a SpectraMax i3x Multi-Mode Microplate Reader (Molecular Devices), and it was proportional to the ADP concentration produced and correlated with the kinase activity.
The kinase assay data presented here are the mean ± standard error (SE) of n≥3 of three independent experiments. The Km and Vmax were determined from a direct, nonlinear fit of [V] versus [S] plots using the Michaelis-Menten equation: V=Vmax[S]/Km+[S] using the GraphPad Prism 9.0 software package (GraphPad Software Inc., CA, USA). Additionally, the Microscale Thermophoresis (MST) experiments were conducted using the Monolith NT.11.5 instrument, with triplicate runs. Statistical comparisons were made using Student’s t-test. Differences in mean values were considered significant at *p-value≤0.05, **p-value≤0.01, ***p-value≤0.001, ****p-value≤0.0001.

[4] = tested on: autophosphorylation; experiment: ATP biotinylation kinase assay (autophosphorylation, SA-HRPO western blot); assay type: biochemical, Entamoeba histolytica; details: 4 μM kinase (EhPDK1 2 μM), 20 μM biotin-labelled ATP, 40 mM Tris-Cl pH 7.8, 10 mM MgCl2, 2 mM DTT, 30°C, 1 h
Procedure: ATP biotinylation assays were performed in the presence of 4 μM of EhAGCK1 (WT, T275D, and KDD1) and EhAGCK2 (WT, T274D, and KDD2) along with 2 μM of wild-type EhPDK1 in the presence of activation buffer 40 mM Tris-Cl pH 7.8, 10 mM MgCl2, and 2 mM DTT and incubated at 30°C for 1 h. The reaction was triggered by adding 20 μM biotin-labelled ATP (Catalogue NU-970-BIO, Jena Bioscience). 20 μl of the reaction was collected at the indicated time point and quenched by the addition of 4x SDS-loading dye. After gel electrophoresis, phosphorylated proteins were visualized by immunoblotting using HRPO-conjugated streptavidin (Invitrogen).
ATP biotinylated protein samples were separated by SDS-PAGE and then electro-transferred to PVDF membrane (Pall life sciences). The membrane was blocked overnight by 5% BSA (G-Biosciences) in TBS-T (TBS with 0.1% Tween 20) and stained with Ponceau S. This blocking process was done overnight at 4°C. The membrane was then incubated with 1:1000 dilution of HRPO-conjugated streptavidin (Invitrogen) at room temperature. Following antibody incubation, the blots were carefully cleaned with TBS-T. Band detection was carried out with a Millipore ECL kit.

[5] = biological target: T2, EhAGCK2 WT (Entamoeba histolytica AGC family kinase 2, EHI_053040), full-length recombinant His-tagged protein (Entamoeba histolytica, UniProt C4M3C2 1-434); experiment: MST; His-tagged kinase labelled with RED-tris-NTA 2nd Generation dye, kept constant (50 nM by the legend); unlabelled peptide in 16 1:1 dilutions, 500 uM to 153 nM as printed; 50 mM Tris-Cl pH 8, 150 mM NaCl, 1 mM beta-ME, 5% glycerol; 25 C; Monolith NT.115, 50% LED, medium MST power; details: both partners purified
T2 construct: source: E. coli C41(DE3), purified (Ni2+-NTA)
T2 sequence: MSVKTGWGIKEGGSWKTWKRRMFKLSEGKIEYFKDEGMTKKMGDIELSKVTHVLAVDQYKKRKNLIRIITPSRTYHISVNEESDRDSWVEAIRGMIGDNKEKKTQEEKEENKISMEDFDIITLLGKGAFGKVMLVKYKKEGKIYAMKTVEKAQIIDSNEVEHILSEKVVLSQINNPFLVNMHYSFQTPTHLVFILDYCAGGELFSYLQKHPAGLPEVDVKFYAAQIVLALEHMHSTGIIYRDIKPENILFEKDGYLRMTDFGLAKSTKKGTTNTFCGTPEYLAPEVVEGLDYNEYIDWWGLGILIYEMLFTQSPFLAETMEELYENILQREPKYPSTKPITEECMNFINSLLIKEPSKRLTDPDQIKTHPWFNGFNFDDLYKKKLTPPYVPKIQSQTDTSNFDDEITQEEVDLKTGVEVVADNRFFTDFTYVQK

[6] = 50 μM HsGSK3 peptide, 250 μM ATP, 60 min, 30°C

GRPRTTSFAESCK [HsGSK3, reference compound]
Kd [1]: 2610 nM

B1: EhRhoGEF peptide (from RhoGEF, EHI_008090) (peptide)
chain: SSPSSVPAAQSTTPVNVPK
Kd [2]: 307 nM

B2: EhAGCK2 WT: recombinant full-length wild-type His-tagged AGC family kinase 2 of E. histolytica (protein)
chain: MSVKTGWGIKEGGSWKTWKRRMFKLSEGKIEYFKDEGMTKKMGDIELSKVTHVLAVDQYKKRKNLIRIITPSRTYHISVNEESDRDSWVEAIRGMIGDNKEKKTQEEKEENKISMEDFDIITLLGKGAFGKVMLVKYKKEGKIYAMKTVEKAQIIDSNEVEHILSEKVVLSQINNPFLVNMHYSFQTPTHLVFILDYCAGGELFSYLQKHPAGLPEVDVKFYAAQIVLALEHMHSTGIIYRDIKPENILFEKDGYLRMTDFGLAKSTKKGTTNTFCGTPEYLAPEVVEGLDYNEYIDWWGLGILIYEMLFTQSPFLAETMEELYENILQREPKYPSTKPITEECMNFINSLLIKEPSKRLTDPDQIKTHPWFNGFNFDDLYKKKLTPPYVPKIQSQTDTSNFDDEITQEEVDLKTGVEVVADNRFFTDFTYVQK
modifications: left off: His tag, end not stated, kept
notes: recombinant full-length wild-type His-tagged AGC family kinase 2 of E. histolytica
kinase activity with HsGSK3 peptide in Mg2+ / without Mn2+ (words) ([3]; Mg2+, 50 μM HsGSK3 peptide, kinase 0-80 μM, 250 μM ATP): phosphorylates HsGSK3 peptide
ion preference for kinase activity ([3]; MgCl2 versus MnCl2 buffer, HsGSK3 peptide): phosphorylates the peptide substrates in both MgCl2 and MnCl2 buffers; also recorded: optimal activity with Mg^2+
kinase activity with HsGSK3 peptide in presence of Mn2+ [3, 6]: showed no increment, in fact, a small decrease in the average kinase activity
Fold change (MgCl2: MnCl2) ([3]; S1 Table, kinase activity in MgCl2 and MnCl2 buffers, 50 μM HsGSK3 peptide, 250 μM ATP, 60 min, 30°C): 0.63
autophosphorylation activity (words) [4]: exhibited autophosphorylation activity
autophosphorylation activity (words) ([4]; listed as EhAGCK2): able to accept biotin-ATP as substrate and underwent autophosphorylation

B3: EhCoactosin peptide (from Coactosin, EHI_168340) (peptide)
chain: KAGGADYSFNTTSN
Kd [5]: 413 nM

B4: KDD1: kinase-dead domain EhAGCK1 (K147A and D241A) (protein)
chain: MEEKTQGWLMKEGGSWKSWKKRYFVLDNDTLYYYKEQDKKTLMGTMNLSLATHITAVDNYHKKYENIIRICTPSRTFHLSAANEEERLAWLTSIICHSEKTNICKPRISSVPVTQKDFDVKCLLGKGAYGKVFLVEMISTHEIFAMATIEKKQIIEYEEIEHTMSERRILSKLHHPFLVNLYYSFQTPTHLFYIIDYCPGGEFYYYLQKNGKVSEEDAKFYAAQILLAIEHLHSSNIVYRAIKPENILIGADGYLRLTDFGLSKENVTKENTTSTFCGTPEYLAPEVVVGKDYSEPVDWWGFGILIYEMIHGHAPFTSEDIQQLFQKIIHDPVSFPSASYPSADCKECIVMLLEKDPEKRLTDPNRIKSHCWFKGFDWEGLFQKKLSPPFVPVLKDKTDTSNFNEDIINETAKIDEGEVVDSKDYFNDFTYCK
modifications: left off: His tag, end not stated, kept
kinase activity with HsGSK3 peptide in presence of Mn2+ [3, 6]: remained inactive
autophosphorylation activity (words) [4]: remain inactive
